Test results reported in the supplement of paper PMC10567573.
± gives the standard deviation.

Experiment: protein stability index of a GFP-peptide fusion (GPS, HEK-293T) (PSI 1-6); higher = more stable
[1] = treatment: DMSO, c terminus: a fixed tail appended
[2] = treatment: MLN4924 1 uM, 8 h, c terminus: a fixed tail appended
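Also: 24-mer peptide tiles fused after GFP, lentivirally expressed, FACS-sorted into six equal bins by GFP/DsRed ratio, decoded by Illumina sequencing, PSI is the read-weighted mean bin number.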

Sequence	protein stability index [1]	protein stability index [2]	protein stability index (treatment: DMSO, c terminus: native)	protein stability index (treatment: MLN4924 1 uM, 8 h, c terminus: native)
SERTDTAADGETTATEELEKTQDD [EPB41L3]	5.63 ± 0.2	5.59 ± 0.21	–	–
DNSPTSNSLEGGTDATAFWWGEWT [ADAMTSL2]	3.62 ± 0.35	–	–	–
TGQPLPQSIQQAMRYLRNHCLDQV [DLC1]	2.36 ± 0.093	2.4 ± 0.22	–	–
TTLLKCYLHTNVALVAPLLRLENN [VPS39]	2.68 ± 0.54	2.77 ± 0.57	–	–
AKQTKRMLDMKVNPIQGLASKWDY [COX4I1]	2.93 ± 0.35	2.72 ± 0.34	–	–
YQLGEEAMEKFREDEGFLREEERP [KCNA3]	5.13 ± 0.2	5.27 ± 0.24	–	–
IQLFEELQELLTHDTKDQSPSRAP [HMOX1]	3.3 ± 0.29	3.61 ± 0.45	–	–
DMKPITVGGKIVGSLCAIAGVLTI [KCNA4]	2.88 ± 0.57	3.11 ± 0.32	–	–
SRGGTRGWLPSHEGHLDDGGYTPD [RBMY1A1]	4.73 ± 0.29	4.75 ± 0.24	–	–
LCCEWLRPEKHTKEQILEFLVLEQ [ZNF232]	2.23 ± 0.31	2.24 ± 0.27	–	–
HQQVEEALSFTLLGSAPLDQEPLL [NEK8]	3.69 ± 0.25	3.75 ± 0.12	–	–
KYVVSGFDVDHGICIMDAENITTV [WDR88]	2.28 ± 0.32	2.25 ± 0.25	–	–
IAKAEETHSSLSQELQARLQTVTR [CCDC89]	4.25 ± 0.088	4.13 ± 0.2	–	–
VRNLQSEVEGVKNIMTQNVERILA [VAMP8]	3.01 ± 0.41	2.96 ± 0.51	–	–
TFLSRILTGLNYEAPKYHIPYWVA [NSDHL]	2.77 ± 0.67	3 ± 0.63	–	–
APSLSGKGNPEEEDVDTSQVLYEW [CTNNB1]	5.14 ± 0.28	5.15 ± 0.18	–	–
PSSPLRLGSYKAQKTSRSSSIPCS [PPEF2]	3.86 ± 0.24	3.95 ± 0.21	–	–
ATDNYDIGFGVYFEWTDSPNTAVS [ACBD3]	2.21 ± 0.16	2.25 ± 0.48	–	–
DTERLDDFHLSIHSDMAAIVKAMA [DVL3]	2.36 ± 0.2	2.49 ± 0.25	–	–
KTQIVCKHFLEAIENNKYGWFWVC [ZC3H15]	2.62 ± 0.52	3.09 ± 0.54	–	–
PRKRRRNGNEEDNHLPPQTKRSSR [FAM104A]	5.34 ± 0.16	5.36 ± 0.16	–	–
EVREARDHKEPKEEINKNISDFGR [EHMT1]	5.18 ± 0.26	5.28 ± 0.17	–	–
AAGTHDGSVYFWATPRQVPSLQHL [WSB1]	2.52 ± 0.22	2.64 ± 0.21	–	–

Sequence	protein stability index [1]	protein stability index [2]	protein stability index (treatment: DMSO, c terminus: native)	protein stability index (treatment: MLN4924 1 uM, 8 h, c terminus: native)
APSPGVKEQAIWKHPQPAPAVTPD [PKD2L1]	5.15 ± 0.1	5.07 ± 0.13	–	–
ASSMLRKSQLGFLNVTNYCHLAHE [DCAF4]	2.2 ± 0.41	2.42 ± 0.16	–	–
RPQLPQVLQHVRLPLLSPKFLVGT [KLHL20]	2.8 ± 0.12	2.58 ± 0.26	–	–
MVERRGPGRPRTDGENVFTGQSKI [KMT5A]	4.19 ± 0.36	–	–	–
AAGGDGELGSPLRRSISSSRSENV [PSD2]	5.07 ± 0.11	5.1 ± 0.19	–	–
VAQCLRDLVAMQWADAAGEAVPEG [ZSWIM9]	2.92 ± 0.33	3.06 ± 0.36	–	–
LLVQDATPVSNSLLPEKAFSDIPS [GFOD1]	3.35 ± 0.24	3.37 ± 0.22	–	–
EVKPVLEVLVGKTIEQSLLEVMEE [RSPH3]	2.48 ± 0.39	2.64 ± 0.48	–	–
TAAPPPPPPSRPSVAVPPPPPNRM [WASL]	4.82 ± 0.3	4.87 ± 0.2	–	–
RVVHWYFKLLDKNSSGDIGKKEIK [SMOC2]	2.46 ± 0.97	2.41 ± 0.4	–	–
SSQSSLAQEEEEEDQGRTRKRKQS [DDIT3]	5.55 ± 0.32	5.44 ± 0.09	–	–
MMRMFSENLAHHLEIDSGVITLDP [TRIM15]	2.52 ± 0.16	2.69 ± 0.37	–	–
FLNDRLANYLEKVRQLERENAELE [KRT36]	3.21 ± 0.25	3.54 ± 0.49	–	–
LNGYRLGERVLQVSFKTSKQHKA [ELAVL3]	–	–	3.16 ± 0.29	2.69 ± 0.42
RYRGLPAPGPSPADKKRSGKKKIS [WAS]	4.76 ± 0.3	4.71 ± 0.21	–	–
FFIQTVRPKDTVMCYRVRWEEAAP [MYORG]	2.62 ± 0.73	2.56 ± 0.92	–	–
NPPSDFSFQNMNSKRKAETWKKNR [STK38L]	4.65 ± 0.45	4.42 ± 0.22	–	–
YAELGQCSVFPATDAPEQFISQVT [PLK2]	2.67 ± 0.16	3.04 ± 0.41	–	–
KKHAAYAWPFYKPVDAEALELHDY [BRD3]	2.97 ± 0.39	2.96 ± 0.38	–	–
KTSVEKANAQIQILTRSWEEVSTL [CD207]	3.48 ± 0.14	3.77 ± 0.26	–	–
ALVCQVDNDHKEAVGKMGFVVTML [ZER1]	2.29 ± 0.29	2.37 ± 0.5	–	–
SRHCPQLPPPCAALWCSGHLNGHA [ADAMTS4]	2.48 ± 0.3	2.48 ± 0.21	–	–
LWHLAITDRSFNIVDIKPANMEDL [PPP2R2C]	2.36 ± 0.23	2.41 ± 0.28	–	–

Sequence	protein stability index [1]	protein stability index [2]	protein stability index (treatment: DMSO, c terminus: native)	protein stability index (treatment: MLN4924 1 uM, 8 h, c terminus: native)
LLNAASTVARPVFTEYQASAFGNV [RHOBTB3]	2.48 ± 0.21	2.72 ± 0.31	–	–
TIVKARDKLYHPECFMCSDCGLNL [PDLIM4]	2.19 ± 0.44	2.42 ± 0.19	–	–
AVPTDEARAFAEKNNLSFIETSAL [RAB11B]	3.31 ± 0.31	3.47 ± 0.54	–	–
ISYSSMLGAVAGLALGPILRLYKH [MFSD9]	2.58 ± 0.5	2.13 ± 0.25	–	–
SVDWLSQSSCSGPTHTPRPADFSL [VENTX]	3.21 ± 0.25	3.28 ± 0.15	–	–
SASRKSAEQLRIELNAEKFKNSLL [WEE1]	3.2 ± 0.3	3.29 ± 0.38	–	–
VRILLEHYYKENDPSVRLKIASLL [INTS4]	2.09 ± 0.33	2.41 ± 0.4	–	–
NDGWTPLHVAAHYGRDSFVRLLLE [ASB7]	2.45 ± 0.18	2.59 ± 0.27	–	–
SANFHSLDDIYYFGGQNAHNQIAI [FUT8]	2.4 ± 0.72	2.3 ± 0.24	–	–
SDELSWIIELLEKDGMAFQEALDP [ELF3]	2.62 ± 0.34	3.02 ± 0.26	–	–
SIVILDNSPGAYRSHPDNAIPIKS [CTDNEP1]	2.82 ± 0.27	2.91 ± 0.57	–	–
NARGASIFSVTALDPDSKENAQII [PCDHGA10]	3.75 ± 0.12	3.97 ± 0.24	–	–
THFTFKDLHFKMFDVGGQRSERKK [GNAI1]	2.83 ± 0.33	2.93 ± 0.15	–	–
HNCAHFCINIPGSYVCRCKQGYIL [MATN2]	2.48 ± 0.2	2.71 ± 0.27	–	–
QYFTNRLDMSQNVSLVTAELSKDA [SLC29A1]	4.2 ± 0.21	4.25 ± 0.24	–	–
LEDFFVMSDYRGFGIGSEILKNLS [SAT1]	2.38 ± 0.14	2.28 ± 0.44	–	–
VHEVLQAVDAGDPAVEACENRRKV [TCF25]	5.3 ± 0.22	5.35 ± 0.097	–	–
QKVVVTTPLHRDKTPLHQKHAAFV [MYBL2]	3 ± 0.2	3.14 ± 0.32	–	–
ERAVKRMRHLSTGTMTGLAIQYAL [MATN2]	2.39 ± 0.44	2.22 ± 0.32	–	–
VEEQLAQLRCEMEQQNQEYKILLD [KRT17]	4.75 ± 0.29	4.78 ± 0.22	–	–
AQSAGTQQVAAVSSVSPATPFQSV [BRD3]	4.42 ± 0.19	4.37 ± 0.11	–	–
DVCISILHPPVDDPQSGELPSERW [CDC34]	3.9 ± 0.28	4.01 ± 0.24	–	–
WAFSCGTWLPSRAEWLLAVRSIQP [AASDHPPT]	2.65 ± 0.65	2.6 ± 0.64	–	–

Sequence	protein stability index [1]	protein stability index [2]	protein stability index (treatment: DMSO, c terminus: native)	protein stability index (treatment: MLN4924 1 uM, 8 h, c terminus: native)
NQLVGPESIAHIGDVMFTGTADGR [APMAP]	4.77 ± 0.31	4.69 ± 0.08	–	–
DCLQLIADSETPTIQKGSYTFVPW [TNFSF13B]	2.19 ± 0.28	2.2 ± 0.18	–	–
GASSREEPPEEPEQCPVIDSQAPA [SPDEF]	5.69 ± 0.17	5.52 ± 0.078	–	–
DRYSEGIKHVLQTFGPIPEFSRAT [CRYL1]	3.06 ± 0.58	3.36 ± 0.3	–	–
QWNAGEKKLTGGANWQPKVAPATW [SNAP91]	2.98 ± 0.33	3.07 ± 0.14	–	–
KVRQLERDNAELENLIRERSQQQE [KRT33B]	5.11 ± 0.3	5.13 ± 0.28	–	–
PPPLTSPSHGSLSHSKAPSGSQMS [NCF4]	4.83 ± 0.23	4.92 ± 0.35	–	–
SRGLHAWEISWPLEQRGTHAVVGV [SPSB2]	2.43 ± 0.4	2.17 ± 0.44	–	–
ALRVLAEQNIIPSATNVTCYYQPA [TENT5C]	2.31 ± 0.22	2.2 ± 0.089	–	–
VVCAFFKQGQCTKGDKCKFSHDLT [ZC3H15]	4.26 ± 0.64	4.1 ± 0.47	–	–
GGDLMPAPADPTAREGLAAPPRRL [FCHO1]	5.19 ± 0.33	5.15 ± 0.23	–	–
VKKYKSMKLEKEEFVTLKAIALAN [ESRRG]	2.46 ± 0.32	2.66 ± 0.2	–	–
AIGRVRVLEEQLVKAKEQIENYKK [FUT8]	4.03 ± 0.16	4.28 ± 0.27	–	–
AIAMYFLPPSPRFLVMKGQEGAAS [SLC2A12]	2.17 ± 0.53	1.97 ± 0.31	–	–
PHFLQGGPFPLPYTAPGGYLDVGS [TBX6]	2.93 ± 0.56	2.76 ± 0.33	–	–
DVHDDVRLLSDATVEKDESHAGKV [FAM50A]	5.52 ± 0.26	5.43 ± 0.23	–	–
MSYSCCLPSLGCRTSCSSRPCVPP [KRT34]	2.22 ± 0.17	2.37 ± 0.4	–	–
RRSMKRKALFTCPFNGDCRITKDN [VDR]	3.29 ± 0.45	3.48 ± 0.3	–	–
IICYSITDRRSFHEVREFKQLIYR [RIT1]	2.41 ± 0.25	2.53 ± 0.46	–	–
SLIILHLSGATKKGTEKQTTSETQ [NETO1]	2.35 ± 0.26	2.27 ± 0.56	–	–
